Reference: the supplement of paper PMC10724198
± gives the standard deviation of the averaged measurements.

System: Saccharomyces cerevisiae
Assay: protein stability index of tFT-peptide fusion (C-terminal peptide) (PSI (0-1 scale)); higher = more stable (slower turnover)
Details: temperature: 30 C
Protocol: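 MPS profiling in S. cerevisiae of the yeast C-terminome library: the last 12 aa of each annotated ORF are fused to the C-terminus of a sfGFP-mCherry timer, after a GGGS linker. Cells are FACS-sorted into 8 mCherry/sfGFP bins and deep-sequenced. PSI runs from 0 (unstable) to 1 (stable); wild type and das1Δ backgrounds, two technical replicates each.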

[1] = genetic background: das1 deletion

Sequence	protein stability index [1]	protein stability index (genetic background: wild type)
DGYPKDNEDIDP [MAL13 C-terminal 12 aa]	0.70018 ± 0.0004	0.708 ± 0.043
DIEVDHTKSTDP [DPB3 C-terminal 12 aa]	0.6917 ± 0.0038	0.676 ± 0.018
DILSQIIESCWV [YNL174W C-terminal 12 aa]	0.654 ± 0.0069	0.705 ± 0.083
DIMVFEISNCRV [HIS1 C-terminal 12 aa]	0.6816 ± 0.0057	0.73 ± 0.052
DIPRSNVYGSLI [SCY1 C-terminal 12 aa]	0.7131 ± 0.0063	0.672 ± 0.044
DITYDDYKSIDF [SUT1 C-terminal 12 aa]	0.694 ± 0.024	0.703 ± 0.095
DLEMEVIAVEKN [MMF1 C-terminal 12 aa]	0.681 ± 0.0085	0.674 ± 0.034
DLKKLIWNEIFS [FUS3 C-terminal 12 aa]	0.707 ± 0.021	0.684 ± 0.027
DLQSLIESNGFA [PFK27 C-terminal 12 aa]	0.689 ± 0.021	0.689 ± 0.026
DMLYDELMKTME [KSS1 C-terminal 12 aa]	0.7032 ± 0.00096	0.666 ± 0.022
DNNDLAKSSSQK [CMI7 C-terminal 12 aa]	0.7059 ± 0.0068	0.66 ± 0.048
DNNTVTANPTAR [YJR012C C-terminal 12 aa]	0.7033 ± 0.0028	0.6523 ± 0.003
DRCKEAVDHLMS [ISM1 C-terminal 12 aa]	0.686 ± 0.011	0.70544 ± 0.00054
DRIAAQTLEEDE [RPS19A C-terminal 12 aa]	0.687 ± 0.031	0.693 ± 0.05
DSDLFFVAEAIS [YIL032C C-terminal 12 aa]	0.7373 ± 0.0022	0.703 ± 0.022
DSFVEFWGRILY [PUL4 C-terminal 12 aa]	0.704 ± 0.033	0.6623 ± 0.0034
DSVIVVLKTPVE [SMD2 C-terminal 12 aa]	0.67383 ± 0.00026	0.658 ± 0.041

Sequence	protein stability index [1]	protein stability index (genetic background: wild type)
DTDGMQDQSSNI [IVY1 C-terminal 12 aa]	0.693 ± 0.019	0.679 ± 0.019
DVDLTKSGGFKT [CKB2 C-terminal 12 aa]	0.67664 ± 0.00023	0.714 ± 0.058
DVHSKIEKQLGI [UMP1 C-terminal 12 aa]	0.7202 ± 0.0061	0.697 ± 0.017
DWVSHGGDKLDL [RDL1 C-terminal 12 aa]	0.703 ± 0.042	0.704 ± 0.012
EAAKKSEKKSKK [RPL34B C-terminal 12 aa]	0.702 ± 0.015	0.706 ± 0.042
EAQTSRAKNELS [PHD1 C-terminal 12 aa]	0.6855 ± 0.004	0.575 ± 0.011
EAVKNDDIQIFG [BFR2 C-terminal 12 aa]	0.6921 ± 0.0018	0.722 ± 0.031
EDADNDNDYDHE [SAP155 C-terminal 12 aa]	0.677 ± 0.035	0.682 ± 0.0061
EDHRDISGKDVN [UBP1 C-terminal 12 aa]	0.68575 ± 0.0005	0.687 ± 0.033
EDLDADGDHKLV [TUB4 C-terminal 12 aa]	0.6839 ± 0.0032	0.672 ± 0.0083
EDLDSDLFSEVE [SSF1 C-terminal 12 aa]	0.682 ± 0.02	0.732 ± 0.027
EEEKRHGINLKC [GUP2 C-terminal 12 aa]	0.6905 ± 0.004	0.687 ± 0.045
EEFINKLVKAMN [RPL7B C-terminal 12 aa]	0.649 ± 0.012	0.6163 ± 0.0019
EEGIDPSTYLNN [SUB2 C-terminal 12 aa]	0.709 ± 0.033	0.684 ± 0.014
EEHHFYREHIFT [OCA4 C-terminal 12 aa]	0.7231 ± 0.0018	0.7118 ± 0.0058
EEKTKKEKSLLQ [NPP2 C-terminal 12 aa]	0.7035 ± 0.0011	0.726 ± 0.072
EELPSDIATLLN [YKR059W; YJL138C C-terminal 12 aa]	0.7021 ± 0.00081	0.716 ± 0.031
